Residue numbers refer to the chain shown, from its start.
B1: anti-LILRB1 antibody E4 (antibody, human IgG4 S228P, V domains shown)
VH: QVQLVQSGAEVKKPGSSVKVSCKASGGTFSSYTISWVRQAPGQGLEWMGRIIPILGIANYAQKFQGRVTMTRDMSTDTAYMELSSLTYDDTAVYFCVRGPSLNYAGYFDNWGQGTLVTVSS
VL: NFMLTQPHSVSESPGKTVTISCTRSSGSIASNYVQWYQQRPGSSPTTVIYEDNQRPSGVPDRFSGSIDSSSNSASLTISGLKTEDEADYYCQSYDTGNRNYVFGTGTQLTVLG
notes: human IgG4, lambda light chain; also called Antibody clone E4
B2: anti-LILRB1 antibody G1 (antibody, human IgG4 S228P, V domains shown)
VH: EVQLVQSGAEVKKPGSSVKVSCKASGGTFSSYGISWVRQAPGQGLEWMGWISAYNGNTNYAQELQGRVTMTTDTSTSTAYMELRSLRSDDTAVYYCARVGVAGKLDYWGQGTLVTVSS
VL: SYELTQPPSLSVSPGQTASITCSGYKLGDRYVSWYQQKTGQSPVVVIYKDSQRPSGVPERFSGSNSGNTATLTISGTQAMDEADYYCQAWDSGTGVFGGGTKLTVLG
notes: human IgG4, lambda light chain; also called Antibody clone G1
B3: anti-LILRB1 antibody G6 (antibody, human IgG4 S228P, V domains shown)
VH: EVQLVESGAEVKKPGASVKVSCKASGYTFTSYYMHWVRQAPGQGLEWMGGIIPIFGTANYAQKFQGRVTITADESTSTAYMELSSLRSEDTAVYYCARGWGYSSSFDYWGQGTTVTVSS
VL: SYELTQDPAVSVALGQTVTITCQGDSLRRYYATWYQQKPGQAPVLVIYGQNYRPSGIPDRFSGSNSGTTASLTITGAQAEDEADYYCNSRDSSGNHVVFGGGTKLTVLG
notes: human IgG4, lambda light chain; also called Antibody clone G6
B4: anti-LILRB1 antibody E3 (antibody, human IgG4 S228P)
heavy: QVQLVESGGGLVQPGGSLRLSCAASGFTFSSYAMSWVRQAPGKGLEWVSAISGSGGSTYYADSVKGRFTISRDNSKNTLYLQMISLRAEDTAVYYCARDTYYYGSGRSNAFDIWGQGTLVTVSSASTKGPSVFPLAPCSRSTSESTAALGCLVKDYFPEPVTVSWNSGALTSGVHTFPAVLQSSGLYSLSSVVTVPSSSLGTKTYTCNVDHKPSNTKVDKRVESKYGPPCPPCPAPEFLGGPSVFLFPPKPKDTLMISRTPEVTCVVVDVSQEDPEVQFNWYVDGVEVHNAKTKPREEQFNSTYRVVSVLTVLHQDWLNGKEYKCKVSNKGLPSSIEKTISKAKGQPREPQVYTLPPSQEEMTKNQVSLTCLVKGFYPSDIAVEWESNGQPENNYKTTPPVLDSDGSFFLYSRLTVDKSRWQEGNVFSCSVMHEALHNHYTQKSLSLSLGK
light: SYELTQDPAVSVALGQTVRITCQGDSLRNFYASWYQQKSGQAPVLVMYGKNNRPSGIPDRFSGSTSGNTASLTITGAQAEDEADYYCNSRDSSGSHLTGVFGGGTKVTVLGQPAAAPSVTLFPPSSEELQANKATLVCLISDFYPGAVTVAWKADSSPVKAGVETTTPSKQSNNKYAASSYLSLTPEQWKSHRSYSCQVTHEGSTVEKTVAPTECS
notes: human IgG4, lambda light chain; also called Antibody clone E3
B5: anti-LILRB1 antibody B3 (antibody, human IgG4 S228P, V domains shown)
VH: EVQLLESGGGLVQPGRSLRLSCAASGFTFDDYAMHWVRQAPGKGLEWVSGISWNSGSIGYADSVKGRFTISRDNSKNTLYLQMNSLRAEDTAVYYCARVGDSSGWSDAFDIWGQGTMVTVSS
VL: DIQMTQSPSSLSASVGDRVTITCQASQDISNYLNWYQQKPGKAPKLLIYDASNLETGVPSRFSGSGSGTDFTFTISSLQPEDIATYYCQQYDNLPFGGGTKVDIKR
notes: human IgG4, kappa light chain; also called Antibody clone B3
B6: anti-LILRB1 antibody A10 (antibody, human IgG4 S228P, V domains shown)
VH: QMQLVQSGAEVKKPGSSVKVSCKASGGTFSSYAISWVRQAPGQGLEWMGGIIPIFGTANYAQKFQGRVTITADKSISTAYMELSSLRSEDTAVYYCARGGLGELDNWFDPWGQGTLVTVSS
VL: DIVMTQSPATLSVSPGERATLSCRASQSVSSNLAWYQQKPGQAPRLLIYGASTRATGIPARFSGSGSGTEFTLTISSLQSEDFAVYYCQQYGSSPRMYTFGQGTKVDIKR
notes: human IgG4, kappa light chain; also called Antibody clone A10
B7: anti-LILRB1 antibody F12 (antibody, human IgG4 S228P, V domains shown)
VH: QVQLVQSGAEVKKPGESLKISCKGSGYSFTSYWIGWVRQMPGKGLEWMGIIYPGDSDTRYSPSFQGQVTISADKSISTAYLQWSSLKASDTAMYYCASQYYDGGYYMDVWGQGTLVTVSS
VL: QSVLTQPASVSGSPGQSITISCAGTSSDIGDYDYVSWYQQHPGKTPKLMIYDVSRRPSGVPDRFSGSKSGNTASLTISGLQTEDEADYYCASYTSSSVVVFGGGTKLTVLG
notes: human IgG4, lambda light chain; also called Antibody clone F12
B8: anti-LILRB1 antibody G9 (antibody, human IgG4 S228P, V domains shown)
VH: B7 VH with S7P
VL: QSALTQPASVSGSPGQSITISCTGSSSDVGGYNYVSWYQQHPGKAPKLMIYDVSNRPSGVSDRFSGSKSGNMASLTISGLQAEDEADYYCSSYTGSSTLDVLFGGGTKLTVLG
notes: human IgG4, lambda light chain; also called Antibody clone G9
B9: anti-LILRB1 antibody G11 (antibody, human IgG4 S228P, V domains shown)
VH: B7 VH
VL: QSALTQPRSVSGSPGQSVTISCTGTSSDVGGYNYVSWYQQHPGKAPKLMIYDVSKRPSGVPDRFSGSKSGNTASLTISGLQAEDEADYYCSSYSSSSTLVVFGGGTKLTVLG
notes: human IgG4, lambda light chain; also called Antibody clone G11
B10: anti-LILRB1 antibody H2 (antibody, human IgG4 S228P, V domains shown)
VH: QVQLVQSGAEVKKPGASVKVSCKASGYTFTSYDIHWVRQATGQGLEWMGWISAYNGNTNYAQKLQGRVTMTTDTSTSTAYMELRSLRSDDTAVYYCARDGGDAFDIWGQGTLVTVSS
VL: SYELTQDPAVSVALGQTVRITCQGDSLRNYYASWYQQKPGQAPILVISGNNKRPSGIPDRFSGSSSGDTASLTISGAQAEDEADYYCNSLDSTYNHPIFGGGTKVTVLG
notes: human IgG4, lambda light chain; also called Antibody clone H2

Target: T1, human LILRB1 protein (LILRB1-His, RnD systems Cat. No. 8989-T2) (human, UniProt Q8NHL6 24-458)
T1 construct: Bought protein; also called human LILRB1-His; not shown: His tag
Assay: SPR (Biacore T200), antibody captured by anti-human IgG (Fc), LILRB1-His injected
Procedure: The binding affinities of the 93 antibodies, which were selected in Example 1.3, to the antigen, LILRB1, were measured using Biacore T200 (GE healthcare). An anti-human IgG (Fc) antibody (GE healthcare, Cat. No. BR-1008-39, final concentration of 25 μg/mL) was flowed at the flow rate of 5 μL/min for 360 seconds to be immobilized at 5000-7000 RU on Series S Sensor Chip CM5 (GE healthcare, Cat. No. BR-1005-30) using Amine Coupling Kit (GE healthcare, Cat. No. BR-1000-508).

T1 sequence (Q8NHL6 24-458 limits assumed): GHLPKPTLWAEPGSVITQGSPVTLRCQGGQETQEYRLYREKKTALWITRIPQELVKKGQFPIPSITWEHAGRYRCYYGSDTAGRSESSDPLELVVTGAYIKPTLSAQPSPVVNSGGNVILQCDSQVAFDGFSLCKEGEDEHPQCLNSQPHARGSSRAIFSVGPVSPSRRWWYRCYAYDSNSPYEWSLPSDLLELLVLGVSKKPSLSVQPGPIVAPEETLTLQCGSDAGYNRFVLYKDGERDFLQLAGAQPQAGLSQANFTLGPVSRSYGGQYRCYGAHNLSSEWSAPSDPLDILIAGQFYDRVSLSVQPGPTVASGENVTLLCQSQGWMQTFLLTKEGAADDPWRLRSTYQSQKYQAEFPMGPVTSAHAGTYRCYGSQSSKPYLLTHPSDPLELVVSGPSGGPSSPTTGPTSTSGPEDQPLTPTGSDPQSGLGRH

Row | Kd [nM] | koff [s⁻¹] | kon [M⁻¹ s⁻¹] | Binder
1 | 72.5 | 0.000773 | 10600 | B1
2 | 3.28 | 0.00142 | 433000 | B2
3 | 59.1 | 0.0152 | 258000 | B3
4 | 101 | 0.0035 | 34600 | B4
5 | 99.8 | 0.00149 | 14900 | B5
6 | 152 | 0.00765 | 50400 | B6
7 | 3.46 | 0.000973 | 281000 | B7
8 | 3.05 | 0.000436 | 143000 | B8
9 | 45.2 | 0.00205 | 45400 | B9
10 | 16.2 | 0.0095 | 586000 | B10

Target: T2, LILRB1 expressed on the surface of human natural killer cell KHYG-1 (human, UniProt Q8NHL6 24-650)
T2 construct: whole, on cells; also called LILRB1 on KHYG-1 cells; human NK cells (surface)
Assay: flow cytometry (iQue) on KHYG-1 NK cells, antibody 50 ug/mL
Procedure: In order to test whether or not 93 antibodies selected in Example 1.4 bind LILRB1 expressed on surface of immune cells, natural killer cell (NK cell) surface binding assay was performed. A human NK cell, KHYG-1 cell (JCRB) was cultured in RPMI 1640 medium (Gibco) supplemented with 10%(w/v) of FBS (Gibco) and 100 U/mL of interleukin-2 (Novartis). KHYG-1 cells were added to a U-bottom 96-well tissue culture plate (BD Falcon) at the amount of 5×10⁴ cells/well. Each of the selected antibodies was added to the well to the final concentration of 50 μg/mL per well and incubated at 4° C. for 1 hour.
In order to see the level of LILRB1-specific binding of the selected antibodies, a human IgG4 isotype control antibody (Biolegend) was treated in the same manner. After washing with FACS buffer, the cells were treated with an anti-human Fc-biotin antibody (life technologies) and incubated at 4° C. for 1 hour. After washing with FACS buffer, the cells were treated with streptavidin PE (BD Pharmigen) and incubated at 4° C. for 30 minutes. After washing with FACS buffer, the cells were resuspended and subjected to analysis using iQue screener (Sartorius).

T2 sequence (Q8NHL6 24-650): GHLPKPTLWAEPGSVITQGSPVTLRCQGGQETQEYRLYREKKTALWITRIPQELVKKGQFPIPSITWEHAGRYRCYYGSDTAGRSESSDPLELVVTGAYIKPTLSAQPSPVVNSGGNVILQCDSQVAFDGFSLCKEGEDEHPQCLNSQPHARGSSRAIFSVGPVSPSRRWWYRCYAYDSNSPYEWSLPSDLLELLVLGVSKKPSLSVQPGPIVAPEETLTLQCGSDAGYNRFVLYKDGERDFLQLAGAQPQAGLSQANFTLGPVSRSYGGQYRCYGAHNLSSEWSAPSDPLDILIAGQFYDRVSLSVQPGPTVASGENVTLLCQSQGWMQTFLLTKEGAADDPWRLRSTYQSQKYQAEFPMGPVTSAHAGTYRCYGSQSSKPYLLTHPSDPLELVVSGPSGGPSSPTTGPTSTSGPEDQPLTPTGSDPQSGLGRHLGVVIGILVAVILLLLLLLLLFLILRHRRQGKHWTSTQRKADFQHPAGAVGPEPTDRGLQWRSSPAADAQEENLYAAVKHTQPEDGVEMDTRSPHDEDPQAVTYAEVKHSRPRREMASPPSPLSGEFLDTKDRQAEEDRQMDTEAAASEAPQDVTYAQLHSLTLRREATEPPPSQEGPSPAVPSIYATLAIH

Row | Binder | % of population 2 [%] | Mean Fluorescence Intensity
11 | B1 | 43.2 | 272000
12 | B2 | 56.2 | 321000
13 | B4 | 40.2 | 269000
14 | B6 | 28.7 | 223000
15 | B7 | 38 | 262000
16 | B8 | 41.3 | 263000
17 | B9 | 40.1 | 263000
18 | B10 | 29 | 239000

Reference: US20240270841A1 (LG CHEM, published 2024)
